According to paper PMC3407074:

How the values were obtained:
[1] = biological target: recP12-Cd4d3/4-bio (Plasmodium falciparum); assay: SPR; BIAcore T100, 37°C; recP12-Cd4d3/4-bio captured on a streptavidin chip, biotinylated Cd4d3/4 as reference; serial dilutions of recP41-Cd4d3/4-6H at 10 µL/min; equilibrium analysis, Langmuir isotherm
[2] = biological target: recP12-Cd4d3/4-bio (Plasmodium falciparum); assay: SPR; BIAcore T100, 37°C; recP12 captured on a streptavidin chip; two-fold dilutions from 3.6 µM recP41-Cd4d3/4-6H at 100 µL/min; kinetic analysis, 1:1 binding model

recP41-Cd4d3/4-6H (domain or fragment) gave a Kd [1] of 310 nM, a koff [2] of 0.0212 s⁻¹ and a kon [2] of 134000 M⁻¹ s⁻¹.
